# Laboratory results from paper PMC3057501 (Molecular cell, 2011).
# Biological target: the molecule itself
# Assay: SEC-MALS
protein,measurement,value
"human PAPD1 (residues 44-538), wild type (enzyme, UniProt Q9NVV4 44-538, looked up) EQPSGSVETGFEDKIPKRRFSEMQNERREQAQRTVLIHCPEKISENKFLKYLSQFGPINNHFFYESFGLYAVVEFCQKESIGSLQNGTHTPSTAMETAIPFRSRFFNLKLKNQTSERSRVRSSNQLPRSNKQLFELLCYAESIDDQLNTLLKEFQLTEENTKLRYLTCSLIEDMAAAYFPDCIVRPFGSSVNTFGKLGCDLDMFLDLDETRNLSAHKISGNFLMEFQVKNVPSERIATQKILSVLGECLDHFGPGCVGVQKILNARCPLVRFSHQASGFQCDLTTNNRIALTSSELLYIYGALDSRVRALVFSVRCWARAHSLTSSIPGAWITNFSLTMMVIFFLQRRSPPILPTLDSLKTLADAEDKCVIEGNNCTFVRDLSRIKPSQNTETLELLLKEFFEYFGNFAFDKNSINIRQGREQNKPDSSPLYIQNPFETSLNISKNVSQSQLQKFVDLARESAWILQQEDTDRPSISSNRPWGLVSLLLPSAPNR",stoichiometry N,2
